Experimental data from patent US20220280543A1, “DDX17 AND NLRC4 TARGETING FOR INFLAMMATORY DISEASES” (University of Virginia Patent Foundation, priority 2019, published 2022).
Entries after “also recorded” stand apart in the source; their conditions may differ.

Columns and labels:
NLRC4 inflammasome = experiment: Flagellin-induced caspase-1 activation in wild type BMDM pre-treated with NRTIs, immunoblot; type: cell-based, mouse; conditions: pre-treated 1 hour, flagellin 3 μg/ml (FIG. 31)
Protocol: FIG. 27. NRTI block Flagellin induced NLRC4 inflammasome in BMDM. Wild type BMDM cells were pre-treated with exemplary NRTIs (D4T, 3TC) at 100 μM for 1 hour, and then stimulated with flagellin transfection (3 μg/ml). Supernatant and cell lysate were collected for Caspase-1 detection. […] The caspase-1 (p20) bands are indicated with black arrow.
FIG. 28. NRTI (3TC) blocks flagellin-induced NLRC4 inflammasome in a dose dependent manner. Wild type BMDM cell were pre-treated with indicated dose of NRTI (3TC) for 1 hour, and then stimulated with Flagellin transfection (3 μg/ml). Supernatants were collected for Caspase-1 detection. […] The caspase-1 (p20) bands are indicated with black arrow.
FIG. 31. Modified NRTIs (K8, K9) block flagellin-induced NLRC4 inflammasome in BMDM. Wild type BMDM cell were pre-treated with regular NRTI (D4T, 3TC), the modified NRTIs 3-Methyl-3TC (K9) or 2-Ethyl-AZT (K8), or NLRP3 inhibitors (MCC950, CY-09) for 1 hour, and then stimulated with flagellin transfection (3 μg/ml). Supernatants were collected for secreted caspase-1 detection. […] The caspase-1 (p20) bands are indicated with black arrow.
Nucleoside reverse transcriptase inhibitors (NRTIs) are HIV therapeutics that inhibit retrovirus replication. We have previously shown that NRTIs inhibit P2X7-mediated NLRP3 inflammasome activation by an endogenous retroelement Alu RNA (SEQ ID NO: 86). Activation of NLRP3 inflammasome by Alu RNA (SEQ ID NO: 86) causes the death of retinal pigment epithelium (RPE) in geographic atrophy, a severe form of AMD. […] Currently, multiple NLRP3 inflammasome inhibitors such as MCC950, CY09 are available however, there are no inhibitors of NLRC4. So, a need exists to develop inhibitors of NLRC4 inflammasome to study NLRC4 driven diseases. Here, we show for the first time that NRTIs block flagellin induced NLRC4 inflammasome. We pretreated flagellin transfected BMDMs with DT4 and 3TC to examine caspase-1 activation.
NLRC4 oligomerization is another hallmark of inflammasome activation where high-molecular mass NLRC4 protein complexes are assembled. […]

caspase-1 = experiment: Alu RNA induced caspase-1 activation in THP1 cells after siRNA knockdown; type: cell-based, human; conditions: siRNA knockdown (FIGS. 11A, 11B)
Source text: FIGS. 11A and 11B. Ddx17 involved in Alu RNA (SEQ ID NO: 86) induced inflammasome independent of its microprocessor function. DDX17 is a component of microprocessor complexes with DDX5 and Drosha. To test whether the microprocessor function of DDX17 is required for Alu RNA (SEQ ID NO: 86) induced inflammasome, we measured caspase-1 activation in THP cells with DDX5 or Drosha knockdown (siRNA for DDX5: GGAAAUUACAGUUAGAGGU; SEQ ID NO: 89); siRNA for Drosha: GACAAGUUGAUAGGAUAUA; SEQ ID NO: 90). FIG. 11A. siRNA mediated Ddx17 knockdown, but not Ddx5 in THP1 cells, blocked Alu RNA (SEQ ID NO: 86) induced caspase-1 activation. […] The caspase-1 (p20) bands were indicated with black arrows.
We next examined whether DDX5 or DDX17 was the sensor for Alu RNA (SEQ ID NO: 86) induced NLRC4 inflammasome activation. Due to the high degree of similarity in the sequences of DDX5 and DDX17, we designed 3 siRNAs targeting DDX5 alone, DDX17 alone, or both DDX5 and DDX17, and confirmed their target efficiency in THP1 cells (FIG. 11A). […] Therefore, we tested whether Drosha is also involved in SINE RNA-DDX17-NLRC4 axis. […] These observations implicate that DDX17 mediated SINE RNA induced NLRC4 inflammasome is independent of microprocessor function.

[1] = biological target: Ddx17 (bait of the Ddx complex, Table 3) (UniProt Q92841); experiment: IP tandem mass spectrometry of the Ddx17 complex, mock-treated
Ddx17 (bait of the Ddx complex, Table 3), sequence (Q92841 whole entry, one chain of several): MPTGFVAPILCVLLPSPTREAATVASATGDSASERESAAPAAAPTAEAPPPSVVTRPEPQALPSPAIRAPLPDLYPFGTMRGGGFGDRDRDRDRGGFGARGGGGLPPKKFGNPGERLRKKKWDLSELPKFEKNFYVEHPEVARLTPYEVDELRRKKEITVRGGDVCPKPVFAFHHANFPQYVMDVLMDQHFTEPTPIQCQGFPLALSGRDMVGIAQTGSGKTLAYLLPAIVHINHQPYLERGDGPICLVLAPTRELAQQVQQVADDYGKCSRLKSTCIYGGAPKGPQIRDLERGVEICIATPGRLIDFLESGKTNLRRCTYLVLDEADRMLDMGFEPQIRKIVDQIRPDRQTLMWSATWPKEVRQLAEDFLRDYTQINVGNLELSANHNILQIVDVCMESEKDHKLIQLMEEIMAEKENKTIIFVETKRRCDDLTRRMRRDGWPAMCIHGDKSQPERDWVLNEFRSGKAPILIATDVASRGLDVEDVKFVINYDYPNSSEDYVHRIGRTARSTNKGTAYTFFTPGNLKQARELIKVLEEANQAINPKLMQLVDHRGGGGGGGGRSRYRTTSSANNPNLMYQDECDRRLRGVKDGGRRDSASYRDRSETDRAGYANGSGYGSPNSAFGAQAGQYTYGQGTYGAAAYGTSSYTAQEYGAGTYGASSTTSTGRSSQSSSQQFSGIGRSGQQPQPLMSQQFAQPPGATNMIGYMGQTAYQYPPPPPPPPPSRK

[2] = biological target: Ddx17 (bait of the Ddx complex, Table 3) (UniProt Q92841); experiment: IP tandem mass spectrometry of the Ddx17 complex, Alu RNA-treated
[3] = tested on: NLRC4 phosphorylation (site S533); experiment: SINE RNA induced NLRC4 phosphorylation (S533) in BMDM, Western blot; type: cell-based, mouse; conditions: SINE RNAs each at 100 pmol, polyI:C 10 μg/ml (FIG. 1)
Protocol: FIG. 1. SINE RNA induced NLRC4 phosphorylation (site S533) in mice macrophage (BMDM). Mouse bone marrow derived macrophage (BMDM) were treated with SINE RNAs (Alu (SEQ ID NO: 86), B1 (SEQ ID NO: 87), and B2 (SEQ ID NO: 88), each at 100 pmol), and polyI:C (10 μg/ml). Phosphorylated Nlrc4 (p-Nlrc4) and total Nlrc4 (t-Nlrc4) were detected by Western blot. Actin is provided as a loading control. The p-NLRC4 bands were indicated by black arrow.
Previous studies have shown that NLRC4 inflammasome activation in response to Salmonella exposure requires two steps for its activation, phosphorylation on Ser533 residue of NLRC4 and NAIP mediated oligomerization of NLRC4. […] Moreover, treatment with SINE RNAs induced caspase-1 p20 cleavage, indicative of inflammasome activation (FIG. 2). For the subsequent experiments in this study, we used Alu RNA (SEQ ID NO: 86) as the stimulus to activate the NLRC4 inflammasome. To date, two kinases are reported to phosphorylate NLRC4 at S533: protein kinase C delta (PKCδ) and leucine rich repeat-containing kinase-2 (LRRK2). To explore the roles of these kinases in Alu RNA (SEQ ID NO: 86) induced NLRC4 phosphorylation, we pretreated BMDMs with pharmacological inhibitors of LRRK2 (GSK2578215A, GSK) and PKCδ (Rottlerin, Rot) respectively.

ASC specks = experiment: SINE RNA induced ASC specks in BMDM, immunofluorescence; type: cell-based, mouse; conditions: BMDMs, transfection vs Mock (FIG. 3A)
Protocol: FIGS. 3A and 3B. SINE RNA-induced ASC oligomerization is dependent on NLRC4 (BMDM). FIG. 3A. Immunofluorescence images of endogenous ASC specks and NLRC4 puncta in BMDMs after transfected with Alu (SEQ ID NO: 86) or B2 (SEQ ID NO: 88) RNA or transfection reagents only (Mock). […] Moreover, NLRC4 proteins assembled as puncta, and co-resided with ASC specks. FIG. 3B. ASC oligomerizations were evaluated in wild-type and Nlrc4^−/− BMDMs through cross-linking and western blot. […] The bands of oligomeric ASC protein were indicated by black arrow.
The activated NLRC4 inflammasome undergoes oligomerization by assembling into high-molecular mass multiprotein complexes. We first investigated in situ assembling of NLRC4 and apoptosis speck (ASC) like protein complexes in response to SINE RNA treatment of BMDMs. Immunofluorescence studies show increased NLRC4 and ASC specks in SINE RNA-treated BMDMs compared to mock-treated cells (FIG. 3A). To assess NLRC4 inflammasome assembly, WT and NLRC4 KO BMDM cells were treated with Alu RNA (SEQ ID NO: 86). Disuccinimidyl suberate (DSS) cross-linked lysates were resolved using denaturing SDS-PAGE to detect ASC oligomers and cell lysates were resolved using native polyacrylamide gel electrophoresis (NATIVE-PAGE) to detect NLRC4 oligomerization. […] NLRC4/ASC oligomerization is essential for the cleavage of pro-caspase-1 into its active form p20 and IL-1β release.

Row | Molecule | Peptides [1] | Coverage (%) [2] | Peptides [2] | Coverage (%) [1] | other results
1 | 2-Ethyl-AZT [K8] |  |  |  |  | flagellin induced caspase-1 activation, modified NRTIs (NLRC4 inflammasome): blocked; also recorded: inhibited
2 | 3-Methyl-3TC [K9] |  |  |  |  | flagellin induced caspase-1 activation, modified NRTIs (NLRC4 inflammasome): blocked; also recorded: inhibited
3 | DDX5 siRNA: siRNA for DDX5: GGAAAUUACAGUUAGAGGU; SEQ ID NO: 89 (chemistry not fully specified) |  |  |  |  | caspase-1 cleavage in Alu RNA treated THP1 cells (caspase-1): did not do so
4 | Ddx5 (Table 3) (from UniProt P17844 1-614) | 10 peptides |  |  |  | 
5 | Ddx5 (Table 3) (from UniProt P17844 1-614) (enzyme) |  | 25% | 15 peptides | 17% | 
6 | Nlrp1 (Table 3) (from UniProt Q9C000 1-1473) (receptor) | 0 peptides | 6.6% | 2 peptides | 0% | 
7 | Nlrp3 (Table 3) (from UniProt Q96P20 1-1036) (receptor) | 0 peptides | 3.7% | 3 peptides | 0% | 
8 | Nlrp8 (Table 3) (from UniProt Q86W28 1-1048) (receptor) | 0 peptides | 2.9% | 2 peptides | 0% | 
9 | poly(I:C) |  |  |  |  | NLRC4 phosphorylation on S533 in BMDMs [3]: did not induce
10 | siDrosha: siRNA for Drosha: GACAAGUUGAUAGGAUAUA; SEQ ID NO: 90 (listed as RNA, chemistry not given here) |  |  |  |  | caspase-1 cleavage in Alu RNA treated THP1 cells (caspase-1): did not
11 | B2: mouse SINE B2 RNA, SEQ ID NO: 88 (nucleic acid, Artificially synthesized B2 RNA) GGGCUGGAGAGAUGGCUCAGUGGUUAAGAGCACCUGACUGCUCUUCCAGAGGUCCUGAGUUCAAUUCCCAGCAACCACAUGGUGGCUCACAACCAUCUGUAAUGAGAUCUGAUGCCCUCUUCUGGUGUGUCUGAAGACAGCUACAGUGUACUUACAUAUAAUAAAUAAAUAAAUAAAUAAAUCUUAAAAAAAAAAAAAAGAAAGAAAAA |  |  |  |  | NLRC4 phosphorylation on S533 in BMDMs [3]: induced; formation of ASC specks (ASC specks): induced the formation of ASC specks
